For experiment [1], the target named is T1, GPR7 (Homo sapiens, UniProt P48145).
T1 sequence (P48145 1-328): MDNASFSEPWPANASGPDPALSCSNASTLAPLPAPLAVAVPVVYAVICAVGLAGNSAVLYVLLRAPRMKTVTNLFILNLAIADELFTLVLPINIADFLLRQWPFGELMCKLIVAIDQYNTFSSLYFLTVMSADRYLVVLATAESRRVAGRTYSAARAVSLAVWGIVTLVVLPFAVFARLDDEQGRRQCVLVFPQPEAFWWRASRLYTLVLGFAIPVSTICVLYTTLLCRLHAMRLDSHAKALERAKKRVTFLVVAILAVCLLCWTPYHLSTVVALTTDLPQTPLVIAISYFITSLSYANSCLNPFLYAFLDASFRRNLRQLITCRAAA
Description: Test on binding inhibition of various peptides against human GPR7-expressed CHO cell membrane fraction. The settings on record: iodine-labeled hGPR7L-23; human GPR7-expressed CHO cell membrane fraction 1 μg/well; room temperature 1.5 hour. Details: The synthetic primers were constructed so as to amplify the gene in the region to be translated to its receptor protein; expressed in transfected cells; host or cells: CHO cells, membrane fraction. The procedure:
A mixture of 20 μl of hGPR7L-23 (SEQ ID NO:1) (0.1 mM or 1 mM), 20 μl of lactoperoxidase (Sigma; prepared using 10 μg/ml and 0.1M HEPES-NaOH pH7.0), 20 μl of Idoine-125 (manufactured by Amersham, MS-30, 74 MBq), 20 μl of 0.005% hydrogen peroxide (manufactured by Wako Pure Chemical Industries, Ltd.) was allowed to stand at room temperature for 20 to 30 minutes. Then, 600 μl of 0.1% TFA was added to the mixture. The mixture was applied to reverse phase HPLC for separation and the peaks of the two'labeled products were fractionated in a tube charged with 1 mL of DMSO. Immediately, the fraction was stored on ice and an aliquot was provided for measurement of the radioactivity with a γ-counter. The remaining preparation was dispensed and stored at −30° C.
Human GPR7-expressed CHO cells were cultured in a flask. The flask was washed with 5 mM EDTA/PBS to strip the cells off. The cells were stripped off with 5 mM EDTA/PBS and centrifuged for recovery. The recovered cells were suspended in 25 mL of a buffer for preparing membrane fraction (50 mM Tris-HCl, pH7.5, 5 mM EDTA, 0.1% bovine serum albumin (manufactured by Sigma), 0.5 mM PMSF (manufactured by Wako Pure Chemical Industries, Ltd.), 20 μg/mL leupeptin (manufactured by Peptide Research Institute), 0.1 μg/mL pepstatin A (manufactured by Peptide Research Institute) and 4 μg/mL E-64 (manufactured by Peptide Research Institute)), followed by homogenization on ice using a polytron (12,000 rpm, 15 seconds×3 times). The homogenate was centrifuged at 4° C. under 1,000 g for 10 minutes with a high speed cooling centrifuge to recover the supernatant. […] The pellets were recovered and suspended in a small quantity of the buffer for preparing membrane fractions. […]
Using the assay buffer, the human GPR7-expressed CHO cell membrane fraction was diluted in a final concentration of 1 μg/well and iodine-labeled hGPR7L-23 (SEQ ID NO:1) was diluted in a final concentration of […]. […] After 50 μl of a liquid scintillator was dispensed thereto, the radioactivity was counted on a Top Count (Packard) and the data was analyzed in triplet (FIG. 33). […]

Experiment [2] concerns the target T1, GPR7. The experiment can be described thus: Intracellular cAMP production suppression activity on human GPR7-expressed CHO cells. In kind it is cell-based. Details: The synthetic primers were constructed so as to amplify the gene in the region to be translated to its receptor protein; expressed in transfected cells; host or cells: CHO cells, membrane fraction. The settings on record: forskolin-promoted cAMP production; receptor-expressed CHO cells; read-out: IC50 (nM) human GPR7, cAMP production inhibition. The procedure: (§1) The intracellular cAMP production suppression activity of peptides associated with various GPR7 ligands on CHO cells, in which human GPR7, bovine GPR8, human GPR8, human GPR8, bovine GPR8 and rat GPR7 were expressed, was examined. […] An assay buffer was prepared by adding 20 mM HEPES, pH7.4, 0.1% bovine serum albumin and 0.2 mM 3-isobutyl-1-methylxanthine (Sigma) to Hanks' Balanced Salt Solution (Gibco BRL). The plate incubated overnight was first washed twice with 150 μl of the assay buffer, and then exchanged with 150 μl of the assay buffer, followed by incubation for 30 minutes at 37° C. in 100% air. By adding 4 μM forskolin to the assay buffer, a buffer for sample dilution was prepared and the stock solution (10^−2 M of 10^−3 M) was diluted with the buffer thus obtained to prepare sample solutions in final concentrations of 10^−6 M, 10^−7 M, 10^−8 M, 10^−9 M and 10^−10 M. The plate incubated with the assay buffer for 30 minutes was taken out. After washing twice with the assay buffer, 50 μl of the assay buffer and then 50 μl of the sample solution were added thereto. Each sample was assayed in triplet. […] A difference between the maximum cAMP level and the cAMP level when each sample was added was calculated and the percentage of cAMP production level promoted by forskolin was worked out, which was made the cAMP production inhibition rate.
Background: Cyclic AMP is a second messenger, typically raised through Gs and lowered through Gi signalling.

For experiment [3], the target named is T2, bovine GPR7 (Bos taurus, UniProt Q8MJV3).
T2 construct: expressed in transfected cells; host or cells: CHO cells
T2 sequence (Q8MJV3 1-331): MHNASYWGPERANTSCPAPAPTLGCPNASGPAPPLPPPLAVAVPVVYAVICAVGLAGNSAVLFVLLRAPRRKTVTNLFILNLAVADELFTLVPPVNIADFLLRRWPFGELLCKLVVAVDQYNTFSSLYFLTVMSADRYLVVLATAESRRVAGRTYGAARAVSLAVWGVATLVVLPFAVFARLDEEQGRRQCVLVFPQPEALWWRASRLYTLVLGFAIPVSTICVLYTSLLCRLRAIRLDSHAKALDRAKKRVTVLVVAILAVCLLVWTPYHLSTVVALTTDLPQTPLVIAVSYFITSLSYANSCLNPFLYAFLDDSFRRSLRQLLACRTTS
The experiment can be described thus: Intracellular cAMP production suppression activity on bovine GPR7-expressed CHO cells. In kind it is cell-based. As to conditions: forskolin-promoted cAMP production; receptor-expressed CHO cells; read-out: IC50 (nM) bovine GPR7, cAMP production inhibition. As for the experimental part:
as §1

Experiment [4] has as its target T1, GPR7. The settings on record: reported by O'Dowd, B. F. et al.; cited from earlier work.
Experiment [5] addresses T3, human GPR7 (human).
T3 chain: T1 sequence (P48145 1-328)
The experiment can be described thus: competition, radioligand.

Non-standard residues stand in square brackets, D forms with d. Residues, ends and D or L forms follow the SMILES beside them. No end group written: not given here. Trp(6-Br) = N[C@@H](Cc1c[nH]c2cc(Br)ccc12)C(=O)O; dTrp(6-Br) = N[C@H](Cc1c[nH]c2cc(Br)ccc12)C(=O)O

Consider 14 molecules from patent US7268212B2, “Ligand of G protein-coupled receptor protein and DNA thereof” (Takeda Pharmaceutical Company Limited, priority 2001, dated 2007).

Take `CC(C)C[C@H](NC(=O)CNC(=O)[C@H](C)NC(=O)[C@H](C)NC(=O)[C@H](CCCNC(=N)N)NC(=O)CNC(=O)[C@@H](NC(=O)[C@H](CO)NC(=O)[C@H](Cc1ccc(O)cc1)NC(=O)[C@H](Cc1ccc(O)cc1)NC(=O)CNC(=O)[C@H](CCC(N)=O)NC(=O)CNC(=O)[C@H](C)NC(=O)[C@@H](NC(=O)[C@@H]1CCCN1C(=O)[C@H](CCCCN)NC(=O)[C@H](Cc1ccc(O)cc1)NC(=O)[C@@H](N)Cc1c[nH]c2cc(Br)ccc12)[C@@H](C)O)C(C)C)C(=O)N[C@@H](CC(C)C)C(=O)N[C@@H](CO)C(=O)NCC(=O)N[C@@H](Cc1ccccc1)C(=O)N[C@@H](Cc1c[nH]cn1)C(=O)N[C@@H](CCCNC(=N)N)C(=O)N[C@@H](CO)C(=O)N1CCC[C@H]1C(=O)N[C@@H](Cc1ccc(O)cc1)C(=O)N[C@@H](C)C(=O)O` [LTrp(6Br)1-bovine GPR7L(29)] (H-[Trp(6-Br)]YKPTAGQGYYSVGRAAGLLSGFHRSPYA-OH; N-terminus and C-terminus assumed): the IC50 amounted to 0.34 nM in experiment [1] and 0.58 nM in experiment [2].
Consider “WYKPAAGSHHYSVGRAAGLLSSFHRFPST [Trp1-rat GPR7L(29)]”, for which the IC50 in experiment [3] turned out to be 1.2 nM; in experiment [1], 0.34 nM.
Consider β-endorphin, for which the “inhibition of [3H] bremazocine binding to the membrane fraction of GPR7” value in experiment [4] was “inhibited”.
As for “WYKPAAGSHHYSVGRAAGLLSSFH [Trp1-rat GPR7L(24)]”, the IC50 in experiment [2] was found to be 0.31 nM.
WYKPTAGQGYYSVGRAAGLLSGFHRSPYA [Trp1-bovine GPR7L(29)] came in with an IC50 in experiment [5] of 0.31 nM.
With [Trp(6-Br)]YKPTAGQGYYSVGRAAGLLSGFHRSPYA [LTrp(6Br)1-bovine GPR7L(29)], the IC50 in experiment [5] was 0.34 nM.
On to [Trp(6-Br)]YKPAAGHSSYSVGRAAGLLSGLRRSPYA [LTrp(6Br)1-human GPR7L(29)], for which, in experiment [5], the 50% inhibitory concentration (IC50) is 0.32 nM.
For WYKPAAGSHHYSVGRAAGLLSSFHRFPST [Trp1-rat GPR7L(29)], the IC50 in experiment [5] worked out at 0.34 nM.

B1: DTrp(6Br)1-human GPR7L(29) (peptide)
chain: WYKPAAGHSSYSVGRAAGLLSGLRRSPYA
modifications: not fully specified (residue 1); printed as D-Trp(6Br)-Tyr-Lys-Pro-Ala-Ala-Gly-His-Ser-Ser-Tyr-Ser-Val-Gly-Arg-Ala-Ala-Gly-Leu-Leu-Ser-Gly-Leu-Arg-Arg-Ser-Pro-Tyr-Ala
On to B1, for which the IC50 in experiment [5] was determined as 13 nM.
In the case of WYKPAAGHSSYSVGRAAGLLSGL [Trp1-human GPR7L(23)], the IC50 in experiment [5] turned out to be 1.6 nM.
Consider WYKHVASPRYHTVGRAAGLLMGL [Trp1-human GPR8L(23)], for which the IC50 in experiment [5] worked out at 0.4 nM.
Consider [dTrp(6-Br)]YKPTAGQGYYSVGRAAGLLSGFHRSPYA [DTrp(6Br)1-bovine GPR7L(29)], for which the IC50 in experiment [5] came to 6.1 nM.
Take WYKPAAGSHHYSVGRAAGLLSSFH [Trp1-rat GPR7L(24)]: the IC50 in experiment [5] amounted to 0.3 nM.
For WYKPAAGHSSYSVGRAAGLLSGLRRSPYA [Trp1-human GPR7L(29)], in experiment [5], the IC50 turned out to be 0.33 nM.

One may read the IC50 as the midpoint of a concentration-inhibition curve.
